Laboratory results as given in publication PMC2441799 (Nucleic Acids Research, 2008).

Molecular target: full-length JDP2 protein fused to the yeast GAL4 DNA-binding domain (GAL4-DBD-JDP2) (rat, UniProt Q78E65 1-163)
Test: two-hybrid

Chain of full-length JDP2 protein fused to the yeast GAL4 DNA-binding domain (GAL4-DBD-JDP2) (Q78E65 whole entry, the tested form may be a part): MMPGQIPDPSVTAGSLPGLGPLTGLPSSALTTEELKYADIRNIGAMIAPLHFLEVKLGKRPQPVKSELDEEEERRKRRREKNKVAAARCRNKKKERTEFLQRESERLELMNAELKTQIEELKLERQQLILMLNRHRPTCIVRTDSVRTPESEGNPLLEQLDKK

fold potentiation of the 5 × UAS luciferase reporter (two-hybrid): 25 fold
B1: wild-type CHOP10 (expression plasmid, in NIH3T3 cells) (natural protein)
chain: MAAESLPFSFGTLSSWELEAWYEDLQEVLSSDENGGTYVSPPGNEEEESKIFTTLDPASLAWLTEEEPEPAEVTSTSQSPHSPDSSQSSLAQEEEEEDQGRTRKRKQSGHSPARAGKQRMKEKEQENERKVAQLAEENERLKQEIERLTREVEATRRALIDRMVNLHQA
